Experimental data from patent US20250042976A1 (ROCHE DIAGNOSTICS OPERATIONS, published 2025).

Tests used:
[1] = biological target: RBD-L452Q F490S (SARS-CoV-2, UniProt P0DTC2)
[2] = biological target: RBD-E484K (SARS-CoV-2, UniProt P0DTC2)
[3] = biological target: RBD-E406W (SARS-CoV-2, UniProt P0DTC2)
[4] = biological target: RBD Omikron (SARS-CoV-2, Omicron variant)

B1: Antibody 1F12 (antibody, V domains shown)
VH: QSLEESGGDLVKPGASLTLTCTASGFSFSNNYVMCWVRQAPGKGLEWIGCINTGSGSTYYATWAKGRFTISKISSTTVTLQMTSLTAADTATYFCARSTTYYNYIGGNWIYVMDGFNLWGPGTLVPVSS
VL: AQVLTQTPSSVSEPVGGTVTINCQASENIYSSLAWYQQKPGQPPKLLIYDASDLASGVPSRFSGSGSGTEYTLTISGVECDDAATYYCQQGYTVDNIDNTFGGGTEVVVK
B1 was tested, and the Kd [1] was 0.33 nM, the koff [1] was 0.0019 s⁻¹ and the kon [1] was 5.8e+06 M⁻¹ s⁻¹. It also gave a Kd [2] of 0.31 nM, a koff [2] of 0.00081 s⁻¹ and a kon [2] of 2.6e+06 M⁻¹ s⁻¹. The Kd [3] was 0.75 nM, the koff [3] was 0.0016 s⁻¹ and the kon [3] was 2.1e+06 M⁻¹ s⁻¹. For the same binder, the Kd [4] was 0.28 nM, the koff [4] was 0.0012 s⁻¹ and the kon [4] was 2e+06 M⁻¹ s⁻¹.
